Measurements as given in patent publication US20240293565A1 (BEIJING SINOTAU BIO PHARMACEUTICALS TECHNOLOGY, published 2024).

Assays:
[1] = molecular target: T1, human HER3 on the cell surface (human, UniProt P21860 20-1342); experiment: cell-based or functional assay
[2] = molecular target: T1, human HER3 on the cell surface; experiment: flow cytometry on SP2/0-HER3 cells
Procedure: ch3F8-MMAE maintains the similar binding affinity to ch3F8. ch3F8-MMAE binding affinity with HER3 was measured with SP2/0-HER3 by FACS.

T1 sequence (P21860 20-1342): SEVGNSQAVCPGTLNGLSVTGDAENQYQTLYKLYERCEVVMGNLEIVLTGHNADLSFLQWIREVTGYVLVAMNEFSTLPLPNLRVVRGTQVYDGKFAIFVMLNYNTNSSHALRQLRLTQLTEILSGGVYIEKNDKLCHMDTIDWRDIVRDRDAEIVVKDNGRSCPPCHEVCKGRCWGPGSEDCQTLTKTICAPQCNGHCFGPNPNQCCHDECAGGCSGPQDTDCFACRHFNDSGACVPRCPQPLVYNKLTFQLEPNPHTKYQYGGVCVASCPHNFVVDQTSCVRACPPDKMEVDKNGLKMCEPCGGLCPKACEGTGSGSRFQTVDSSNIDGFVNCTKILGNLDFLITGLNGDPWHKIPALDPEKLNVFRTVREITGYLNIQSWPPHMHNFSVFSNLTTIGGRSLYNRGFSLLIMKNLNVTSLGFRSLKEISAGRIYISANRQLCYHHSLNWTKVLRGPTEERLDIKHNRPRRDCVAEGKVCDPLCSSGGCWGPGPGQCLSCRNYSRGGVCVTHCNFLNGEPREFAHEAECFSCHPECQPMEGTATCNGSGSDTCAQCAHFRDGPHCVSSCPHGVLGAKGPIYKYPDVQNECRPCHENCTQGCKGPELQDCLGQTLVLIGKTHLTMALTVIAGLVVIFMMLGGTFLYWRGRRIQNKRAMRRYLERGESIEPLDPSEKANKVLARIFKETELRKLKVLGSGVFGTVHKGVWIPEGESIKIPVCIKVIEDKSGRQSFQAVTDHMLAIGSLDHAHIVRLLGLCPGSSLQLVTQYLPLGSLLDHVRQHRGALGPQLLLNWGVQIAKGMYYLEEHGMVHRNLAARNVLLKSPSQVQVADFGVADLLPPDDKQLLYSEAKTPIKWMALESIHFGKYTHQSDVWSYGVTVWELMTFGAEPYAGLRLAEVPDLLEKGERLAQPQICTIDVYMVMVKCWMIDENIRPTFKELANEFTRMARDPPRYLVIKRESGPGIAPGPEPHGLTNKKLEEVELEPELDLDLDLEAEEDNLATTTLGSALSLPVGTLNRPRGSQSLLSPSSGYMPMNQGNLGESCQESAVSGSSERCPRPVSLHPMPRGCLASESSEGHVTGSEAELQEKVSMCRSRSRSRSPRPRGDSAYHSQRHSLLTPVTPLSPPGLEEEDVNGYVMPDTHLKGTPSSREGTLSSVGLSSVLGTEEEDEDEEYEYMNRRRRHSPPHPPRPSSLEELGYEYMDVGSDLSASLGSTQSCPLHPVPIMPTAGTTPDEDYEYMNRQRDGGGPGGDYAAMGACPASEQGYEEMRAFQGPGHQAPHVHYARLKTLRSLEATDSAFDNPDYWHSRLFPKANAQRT

B1: ch3F8-MMAE (antibody, V domains shown)
VH: DVQLQESGPGLVKPSQSLSLTCSVTGYSITSAYYWNWIRQFPGDKLEWMGYISYDGRNNFNPSLKNRISITRDTSKNQFFLKLNSVTSGDTATYYCARDGDYDYFDYWGQGTTLTVSS
VL: DIQMTQTTSSLSASLGDRVTISCRASQDISNYLNWYQQKPDGTFKLLIYYTSILHSGVPSRFSGSGSGTDYSLTISNLEQEDIATYFCQQGDTLPPTFGAGTKLELK
modifications: MC-VC-MMAE conjugated to cysteine residues of the antibody after reduction of disulfide bonds (positions not stated), DAR around 3.8
- cytotoxicity IC50 (nM), ATPlite, 7901 cells [1]: 5.74 nM
- cytotoxicity IC50 (nM), ATPlite, HT-29 cells [1]: 4.67 nM
- cytotoxicity IC50 (nM), ATPlite, MCF-7 cells [1]: 9.49 nM
- cytotoxicity IC50 (nM), ATPlite, MDA-MB-453 cells [1]: 0.0401 nM
- cytotoxicity IC50 (nM), ATPlite, N87 cells [1]: 1.91 nM
- cytotoxicity IC50 (nM), ATPlite, SK-BR-3 cells [1]: 0.159 nM
- cytotoxicity IC50 (nM), ATPlite, SP2/0-HER3 cells [1]: 0.486 nM

B2: chimeric 3F8 (antibody, human IgG1, V domains shown)
VH: B1 VH
VL: B1 VL
notes: also called ch3F8; Ch3F8
- EC50 (read off the curve) [2]: ~0.08 µg/mL
